# Laboratory results from the supplement of paper PMC11246515.
# ± gives the standard deviation of the averaged measurements.
# Assay: total protein half-life in vivo (active degradation + dilution); higher = more stable protein
# [1] = E. coli NCM3722 delta-clpP delta-lon delta-hslV, growth: N-lim chemostat, doubling time 6 h
# [2] = E. coli NCM3722 delta-clpP, growth: N-lim chemostat, doubling time 6 h
# [3] = E. coli NCM3722 delta-hslV, growth: N-lim chemostat, doubling time 6 h
# [4] = E. coli NCM3722 delta-smpB, growth: N-lim chemostat, doubling time 6 h
# [5] = wild type E. coli NCM3722, growth: C-lim chemostat, doubling time 3 h
# [6] = wild type E. coli NCM3722, growth: C-lim chemostat, doubling time 12 h
# [7] = wild type E. coli NCM3722, growth: N-lim chemostat, doubling time 12 h
# [8] = wild type E. coli NCM3722, growth: P-lim chemostat, doubling time 6 h
# [9] = wild type E. coli NCM3722, growth: P-lim chemostat, doubling time 12 h
# [10] = wild type E. coli NCM3722, growth: N-lim chemostat, doubling time 6 h
# [11] = E. coli NCM3722 delta-lon, growth: N-lim chemostat, doubling time 6 h
# [12] = wild type E. coli NCM3722, growth: C-lim chemostat, doubling time 6 h
sequence,measurement,setting,value
MNLLKSLAAVSSMTMFSRVLGFARDAIVARIFGAGMATDAFFVAFKLPNLLRRIFAEGAFSQAFVPILAEYKSKQGEDATRVFVSYVSGLLTLALAVVTVAGMLAAPWVIMVTAPGFADTADKFALTSQLLKITFPYILLISLASLVGAILNTWNRFSIPAFAPTLLNISMIGFALFAAPYFNPPVLALAWAVTVGGVLQLVYQLPHLKKIGMLVLPRINFHDAGAMRVVKQMGPAILGVSVSQISLIINTIFASFLASGSVSWMYYADRLMEFPSGVLGVALGTILLPSLSKSFASGNHDEYNRLMDWGLRLCFLLALPSAVALGILSGPLTVSLFQYGKFTAFDALMTQRALIAYSVGLIGLIVVKVLAPGFYSRQDIKTPVKIAIVTLILTQLMNLAFIGPLKHAGLSLSIGLAACLNASLLYWQLRKQKIFTPQPGWMAFLLRLVVAVLVMSGVLLGMLHIMPEWSLGTMPWRLLRLMAVVLAGIAAYFAALAVLGFKVKEFARRTV [P0AF16],total protein half-life in vivo,[1],6.51 ± 0.41 h
same,total protein half-life in vivo,[2],5.82 ± 0.39 h
same,total protein half-life in vivo,[3],5.87 h
same,total protein half-life in vivo,[4],6.21 ± 0.26 h
same,total protein half-life in vivo,[5],3.36 h
same,total protein half-life in vivo,[6],9.84 h
same,total protein half-life in vivo,[7],8.94 ± 1.4 h
same,total protein half-life in vivo,[8],5.63 ± 0.54 h
same,total protein half-life in vivo,[9],10.6 ± 0.34 h
MHEITLCQRALELIEQQAAKHGAKRVTGVWLKIGAFSCVETSSLAFCFDLVCRGSVAEGCKLHLEEQEAECWCETCQQYVTLLTQRVRRCPQCHGDMLQIVADDGLQIRRIEIDQE [P0A700],total protein half-life in vivo,[1],4.63 h
same,total protein half-life in vivo,[2],2.12 h
same,total protein half-life in vivo,[4],1.76 h
same,total protein half-life in vivo,[6],11.3 h
same,total protein half-life in vivo,[10],2.36 h
same,total protein half-life in vivo,[7],2.23 h
MSKRYFVTGTDTEVGKTVASCALLQAAKAAGYRTAGYKPVASGSEKTPEGLRNSDALALQRNSSLQLDYATVNPYTFAEPTSPHIISAQEGRPIESLVMSAGLRALEQQADWVLVEGAGGWFTPLSDTFTFADWVTQEQLPVILVVGVKLGCINHAMLTAQVIQHAGLTLAGWVANDVTPPGKRHAEYMTTLTRMIPAPLLGEIPWLAENPENAATGKYINLALL,total protein half-life in vivo,[1],5.58 ± 0.28 h
same,total protein half-life in vivo,[2],5.37 ± 1.1 h
same,total protein half-life in vivo,[3],4.33 ± 0.7 h
same,total protein half-life in vivo,[11],5.17 ± 0.34 h
same,total protein half-life in vivo,[4],4.64 ± 0.34 h
same,total protein half-life in vivo,[5],3.06 ± 0.18 h
same,total protein half-life in vivo,[12],6.24 ± 0.58 h
same,total protein half-life in vivo,[10],5.44 ± 0.92 h
same,total protein half-life in vivo,[7],9.86 ± 1.2 h
same,total protein half-life in vivo,[8],5.77 ± 0.12 h
same,total protein half-life in vivo,[9],12.5 ± 0.99 h
MSKRLPPLNALRVFDAAARHLSFTRAAEELFVTQAAVSHQIKSLEDFLGLKLFRRRNRSLLLTEEGQSYFLDIKEIFSQLTEATRKLQARSAKGALTVSLLPSFAIHWLVPRLSSFNSAYPGIDVRIQAVDRQEDKLADDVDVAIFYGRGNWPGLRVEKLYAEYLLPVCSPLLLTGEKPLKTPEDLAKHTLLHDASRRDWQTYTRQLGLNHINVQQGPIFSHSAMVLQAAIHGQGVALANNVMAQSEIEAGRLVCPFNDVLVSKNAFYLVCHDSQAELGKIAAFRQWILAKAAAEQEKFRFRYEQ [P0A9F6],total protein half-life in vivo,[1],5.93 ± 0.27 h
same,total protein half-life in vivo,[3],5.94 ± 0.4 h
same,total protein half-life in vivo,[4],5.73 ± 0.34 h
same,total protein half-life in vivo,[5],3.2 ± 0.13 h
same,total protein half-life in vivo,[12],6.59 ± 0.7 h
same,total protein half-life in vivo,[6],11 ± 0.54 h
same,total protein half-life in vivo,[10],6.86 ± 0.45 h
same,total protein half-life in vivo,[7],12.1 ± 0.34 h
same,total protein half-life in vivo,[8],5.82 ± 0.081 h
same,total protein half-life in vivo,[9],13.3 ± 1.3 h
MSQNLDATAINQIHALISAQGVNEIISKIGADAVALPENFRIHDLEKFNLNRFRFRGALSTASIDDFTRYSKDLADEGTRCFIDADNMRAVSVLNLGTIDEPGHADNTATLKLKKTAPFSALLSVNGERNSQKSLAEWIEDWADYLVGFDANGDAIQATKAAAAIRKITIEANQTADFEDNDFSGKRSLMESVEAKTKDIMPVAFEFKCVPFEGLKERPFKLRLSIITGDRPVLVLRIIQLEAVQEDMANEFRDLLVEKFKDSKVETFIGTFTA,total protein half-life in vivo,[1],3.03 ± 0.25 h
same,total protein half-life in vivo,[2],3.16 h
same,total protein half-life in vivo,[5],2.69 h
same,total protein half-life in vivo,[12],5.13 ± 0.22 h
same,total protein half-life in vivo,[6],9.79 ± 0.92 h
same,total protein half-life in vivo,[7],5.29 h
same,total protein half-life in vivo,[8],5.71 ± 0.56 h
same,total protein half-life in vivo,[9],15.2 ± 0.98 h
MNAYELQALRHIFAMTIDECATWIAQTGDSESWRQWENGKCAIPDRVVEQLLAMRQQRKKHLHAIIEKINNRIGNNTMRFFPDLTAFQRVYPDGNFIDWKIYQSVAAELYAHDLERLC,total protein half-life in vivo,[1],4.85 h
same,total protein half-life in vivo,[5],2.05 h
same,total protein half-life in vivo,[12],3.14 ± 0.49 h
same,total protein half-life in vivo,[6],5.24 ± 0.46 h
MFTFIKKVIKTGTATSSYPLEPIAVDKNFRGKPEQNPQQCIGCAACVNACPSNALTVETDLATGELAWEFNLGHCIFCGRCEEVCPTAAIKLSQEYELAVWKKEDFLQQSRFALCNCRVCNRPFAVQKEIDYAIALLKHNGDSRAENHRESFETCPECKRQKCLVPSDRIELTRHMKEAI,total protein half-life in vivo,[1],2.95 h
MLIRVEIPIDAPGIDALLRRSFESDAEAKLVHDLREDGFLTLGLVATDDEGQVIGYVAFSPVDVQGEDLQWVGMAPLAVDEKYRGQGLARQLVYEGLDSLNEFGYAAVVTLGDPALYSRFGFELAAHHDLRCRWPGTESAFQVHRLADDALNGVTGLVEYHEHFNRF,total protein half-life in vivo,[1],5.29 ± 0.2 h
same,total protein half-life in vivo,[2],4.46 ± 0.13 h
same,total protein half-life in vivo,[3],4.22 ± 0.15 h
same,total protein half-life in vivo,[11],4.44 ± 0.37 h
same,total protein half-life in vivo,[4],3.73 ± 0.17 h
same,total protein half-life in vivo,[5],3.02 ± 0.3 h
same,total protein half-life in vivo,[6],9.91 ± 0.78 h
same,total protein half-life in vivo,[10],4.51 ± 0.72 h
same,total protein half-life in vivo,[7],7.82 ± 0.18 h
same,total protein half-life in vivo,[8],5.72 ± 0.43 h
same,total protein half-life in vivo,[9],11.7 ± 0.65 h
MKKMLLATALALLITGCAQQTFTVQNKQTAVAPKETITHHFFVSGIGQKKTVDAAKICGGAENVVKTETQQTFVNGLLGFITLGIYTPLEARVYCSK,total protein half-life in vivo,[1],6.1 ± 0.25 h
same,total protein half-life in vivo,[2],6.87 h
same,total protein half-life in vivo,[3],6.21 h
same,total protein half-life in vivo,[4],6.05 ± 0.44 h
same,total protein half-life in vivo,[5],3.42 ± 0.22 h
same,total protein half-life in vivo,[6],9.62 ± 2.6 h
same,total protein half-life in vivo,[10],6.71 ± 0.74 h
same,total protein half-life in vivo,[7],12.4 ± 0.78 h
same,total protein half-life in vivo,[8],6.65 ± 0.69 h
same,total protein half-life in vivo,[9],14.7 ± 0.54 h
